Measurements from patent US20260193376A1 (Novo Nordisk, published 2026).
Substitutions are numbered along the chain they refer to.

Assays:
[1] = target: T1, human plasma-derived Factor IXa (human, UniProt P00740 47-191; P00740 227-461); assay: cell-based or functional assay
[2] = target: T1, human plasma-derived Factor IXa; assay: cell-based or functional assay; remark: listed apart in the source

T1 sequence (P00740 47-191, chain 1 of 2): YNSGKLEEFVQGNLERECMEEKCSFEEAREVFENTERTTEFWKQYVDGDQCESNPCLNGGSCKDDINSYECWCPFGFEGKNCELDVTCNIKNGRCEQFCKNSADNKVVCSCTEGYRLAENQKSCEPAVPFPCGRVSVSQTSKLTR
T1 sequence (P00740 227-461, chain 2 of 2): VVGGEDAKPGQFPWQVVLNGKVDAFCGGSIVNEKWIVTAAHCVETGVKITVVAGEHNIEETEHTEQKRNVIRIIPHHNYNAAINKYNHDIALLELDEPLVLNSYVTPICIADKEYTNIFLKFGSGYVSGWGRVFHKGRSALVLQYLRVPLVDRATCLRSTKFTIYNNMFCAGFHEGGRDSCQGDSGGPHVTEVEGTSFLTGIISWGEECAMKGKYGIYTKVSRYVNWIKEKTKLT

B1: one-armed (OA) mAb11-1268 (antibody, V domains shown)
VH: EVQLVESGGGLVQPGRSLRLSCAASGFTFHDYAMHWVRQVPGKGLEWVSGISWKGDIGGYVDSVKGRFTISRDNEKNSLYLQMNSLRAEDTALYYCVKSYGSGSFYNAFDSWGQGTLVTVSS
VL: DIQMTQSPSTLSASVGDRVTITCRASQSISSWLAWYQQKPGKAPKFLIYKASRLDRGTPKRFSGSGSGTEFSLTISSLQPDDFATYYCLEYSSYIRTFGQGTKVEIK
B1 was tested. Which “Stimulation Index, FXa generation assay, 800 nM OA antibody” value (shortened to “Stimulation Index … 800 nM OA antibody”) [1] did it give?
Its value is 1800 fold.

B2: bimAb05-2112 (bispecific antibody, V domains shown)
VH 1: B1 VH
VL 1: B1 VL with K60S
VH 2: EVQLVQSGAEVKKPGESLRISCKGSGYSFSTSWISWVRQMPGKGLEWMGMIDPSDSYTSYSPSFQGHVTISADKSISTAYLQWSSLKASDTAMYYCARLHYYNSEEFDVWGQGTMVTVSS
VL 2: EIVLTQSPGTLSLSPGERATLSCRASQSVSSSYLAWYQQKPGQAPRLLIYGQSSRTRGIPDRFSGSGSGTDFTLTISRLEPEDFAVYYCQQYGDSQLFTFGQGTKLEIK
How did the “Maximum stimulation (fold), FXa generation assay with bispecific antibody; maximum at 7820 nM” value [2] turn out when B2 was run?
The value was 30400 fold.

B3: bimAb05-0746 (bispecific antibody, V domains shown)
VH 1: B1 VH
VL 1: B1 VL with F46L, D55E, K60S
VH 2: B2 VH 2 with S35V, Y57F, M115L
VL 2: B2 VL 2 with Y92F
With B3 as the binder, how does the “Maximum stimulation (fold), FXa generation assay with bispecific antibody; maximum at 3717 nM” value [2] read?
Its value is 14600 fold.

B4: one-armed (OA) mAb11-1499 (antibody, V domains shown)
VH: B1 VH with K54R, D62K, E75A
VL: B1 VL with R53K, K60S, S72T
Which “Stimulation Index, FXa generation assay, 1600 nM OA antibody” value (from here on “Stimulation Index … 1600 nM OA antibody”) [1] does the source give for B4 here?
Its value is 9010 fold.

B5: one-armed (OA) mAb11-1276 (antibody, V domains shown)
VH: B1 VH
VL: B1 VL with K60S, Q79S
Which “Stimulation Index … 800 nM OA antibody” value [1] does the source give for B5 here?
The value was 1740 fold.

B6: one-armed (OA) mAb11-1502 (antibody, V domains shown)
VH: B1 VH with H30D, K54R, D62K, E75A
VL: B1 VL with F46L, R53K, K60S, S72T
How did the “Stimulation Index … 1600 nM OA antibody” value [1] turn out when B6 was run?
The value was 5850 fold.

B7: one-armed (OA) mAb01-9696 (antibody, V domains shown)
VH: B1 VH with R19K, H30D, K54R, E75A, M83L
VL: B1 VL with V15A, K60S
For B7, which “Stimulation Index … 1600 nM OA antibody” value [1] is on record?
Its value is 5170 fold.

B8: one-armed (OA) mAb11-1358 (antibody, V domains shown)
VH: B1 VH with R19K, H30D, K54R, E75A, M83L
VL: B1 VL with V15A, R53K, K60S
How did the “Stimulation Index … 800 nM OA antibody” value [1] turn out when B8 was run?
The value was 2830 fold.

B9: one-armed (OA) mAb11-1501 (antibody, V domains shown)
VH: B1 VH with H30D, K54R, D62K, E75A
VL: B1 VL with R53K, K60S, S72T
How did the “Stimulation Index … 1600 nM OA antibody” value [1] turn out when B9 was run?
Its value is 10300 fold.

B10: bimAb05-2115 (bispecific antibody, V domains shown)
VH 1: B1 VH
VL 1: B1 VL with F46L, D55E, K60S
VH 2: B2 VH 2
VL 2: B2 VL 2
With B10 as the binder, how does the “Maximum stimulation (fold), FXa generation assay with bispecific antibody; maximum at 7790 nM” value [2] read?
The value was 14900 fold.

B11: one-armed (OA) mAb11-1389 (antibody, V domains shown)
VH: B1 VH with R19K, V40A, E75A, V97A
VL: B1 VL with V15A, K60S
How did the “Stimulation Index … 800 nM OA antibody” value [1] turn out when B11 was run?
The value was 5790 fold.

B12: one-armed (OA) mAb11-1282 (antibody, V domains shown)
VH: B1 VH
VL: B1 VL with K60S, Y94W
B12 was tested. Which “Stimulation Index … 800 nM OA antibody” value [1] did it give?
Its value is 1460 fold.

B13: one-armed (OA) mAb11-1273 (antibody, V domains shown)
VH: B1 VH
VL: B1 VL with K60S, S77E
For B13, which “Stimulation Index … 800 nM OA antibody” value [1] is on record?
Its value is 1540 fold.

B14: one-armed (OA) mAb01-9697 (antibody, V domains shown)
VH: B1 VH with R19K, H30D, K54R, E75A, M83L
VL: B1 VL with D55E, K60S
B14 was tested. Which “Stimulation Index, FXa generation assay, 3200 nM OA antibody” value [1] did it give?
Its value is 6540 fold.

B15: bimAb05-2114 (bispecific antibody, V domains shown)
VH 1: B1 VH with K54R, D62K, E75A
VL 1: B1 VL with R53K, D55E, K60S
VH 2: B2 VH 2
VL 2: B2 VL 2
Which “Maximum stimulation (fold), FXa generation assay with bispecific antibody; maximum at 7580 nM” value [2] does the source give for B15 here?
Its value is 35200 fold.

B16: bimAb05-0745 (bispecific antibody, V domains shown)
VH 1: B1 VH
VL 1: B1 VL with K60S
VH 2: B2 VH 2 with S35V, Y57F, M115L
VL 2: B2 VL 2 with Y92F
For B16, which “Maximum stimulation (fold), FXa generation assay with bispecific antibody; maximum at 7980 nM” value [2] is on record?
Its value is 21100 fold.

B17: one-armed (OA) mAb11-1360 (antibody, V domains shown)
VH: B1 VH with R19K, H30D, K54R, E75A, M83L
VL: B1 VL with F46L, D55E, K60S
For B17, which “Stimulation Index … 800 nM OA antibody” value [1] is on record?
Its value is 1110 fold.

B18: bimAb05-3761 (bispecific antibody, V domains shown)
VH 1: B1 VH with R19K, H30D, E75A, M83L, V97A
VL 1: B1 VL with V15A, R18E, F46L, R53K, T58V, K60S, S77D
VH 2: B2 VH 2 with S35V, Y57F, M115L
VL 2: B2 VL 2 with Y92F
For B18, which “Maximum stimulation (fold), FXa generation assay with bispecific antibody; maximum at 2690 nM” value [2] is on record?
Its value is 16300 fold.

B19: one-armed (OA) mAb11-1275 (antibody, V domains shown)
VH: B1 VH
VL: B1 VL with K60S, Q79T
For B19, which “Stimulation Index … 800 nM OA antibody” value [1] is on record?
The value was 1840 fold.

B20: bimAb05-2113 (bispecific antibody, V domains shown)
VH 1: B1 VH with R19K, H30D, E75A, M83L, V97A
VL 1: B1 VL with V15A, R18E, F46L, R53K, T58V, K60S, S77D
VH 2: B2 VH 2
VL 2: B2 VL 2
Which “Maximum stimulation (fold), FXa generation assay with bispecific antibody; maximum at 7600 nM” value [2] does the source give for B20 here?
The value was 26300 fold.

B21: bimAb05-3769 (bispecific antibody, V domains shown)
VH 1: B1 VH with K54R, D62K, E75A
VL 1: B1 VL with R53K, D55E, K60S
VH 2: B2 VH 2 with S35V, Y57F, M115L
VL 2: B2 VL 2 with Y92F
Which “Maximum stimulation (fold), FXa generation assay with bispecific antibody; maximum at 8170 nM” value [2] does the source give for B21 here?
The value was 27400 fold.

B22: one-armed (OA) mAb11-1288 (antibody, V domains shown)
VH: B1 VH
VL: B1 VL with K60Q, S76Y, S92N
For B22, which “Stimulation Index … 800 nM OA antibody” value [1] is on record?
Its value is 2530 fold.

B23: one-armed (OA) mAb11-1344 (antibody, V domains shown)
VH: B1 VH with R19K, H30D, E75A, M83L, V97A
VL: B1 VL with V15A, R53K, K60S
B23 was tested. Which “Stimulation Index … 800 nM OA antibody” value [1] did it give?
The value was 4660 fold.

B24: one-armed (OA) mAb11-1495 (antibody, V domains shown)
VH: B1 VH with K54R, V61A, D62K, E75A
VL: B1 VL with R53K, K60S, S72T
How did the “Stimulation Index … 1600 nM OA antibody” value [1] turn out when B24 was run?
Its value is 7690 fold.

B25: one-armed (OA) mAb01-9978 (antibody, V domains shown)
VH: B1 VH
VL: B1 VL with F46L, D55E, K60S
With B25 as the binder, how does the “Stimulation Index, FXa generation assay, 3600 nM OA antibody” value [1] read?
The value was 3670 fold.

B26: one-armed (OA) mAb11-1278 (antibody, V domains shown)
VH: B1 VH
VL: B1 VL with K60S, S92Q
For B26, which “Stimulation Index … 800 nM OA antibody” value [1] is on record?
The value was 1690 fold.

B27: one-armed (OA) mAb11-1279 (antibody, V domains shown)
VH: B1 VH
VL: B1 VL with K60S, S92K
How did the “Stimulation Index … 800 nM OA antibody” value [1] turn out when B27 was run?
The value was 1560 fold.

B28: bimAb05-3755 (bispecific antibody, V domains shown)
VH 1: B1 VH
VL 1: B1 VL with K60S
VH 2: B2 VH 2 with S30T, S35V, Y57F, N103H, M115L
VL 2: B2 VL 2 with Q52A, T56A, Y92F, D94S, Q96R
For B28, which “Maximum stimulation (fold), FXa generation assay with bispecific antibody; maximum at 156 nM” value [2] is on record?
The value was 7570 fold.

B29: one-armed (OA) mAb11-1286 (antibody, V domains shown)
VH: B1 VH
VL: B1 VL with K60S, S76Y, S77D, S92R
Which “Stimulation Index … 800 nM OA antibody” value [1] does the source give for B29 here?
The value was 1820 fold.

B30: one-armed (OA) mAb01-9933 (antibody, V domains shown)
VH: B1 VH with R19K, H30D, E75A, M83L, V97A
VL: B1 VL with V15A, R18E, F46L, R53K, T58V, K60S, S77D
B30 was tested. Which “Stimulation Index, FXa generation assay, 3600 nM OA antibody” value [1] did it give?
The value was 6440 fold.
